Reference: patent US11976099B2, “Compositions and methods for treatment of bone associated diseases” (THE NATIONAL INSTITUTE FOR BIOTECHNOLOGY IN THE NEGEV LTD., priority 2016, dated 2024)
Substitutions are numbered along the chain they refer to. In names and notes the source's numbering stands.

How the values were obtained:
[1] = system: murine bone marrow derived monocytes (BMMs) differentiating to osteoclasts; assay: Osteoclast differentiation assay of murine BMMs (TRAP staining); format: cell-based, mouse; details: for effect on osteoclast differentiation/formation: Example 9, FIG. 13, varying concentrations, five days; for number of osteoclasts and number of nuclei / osteoclast formation: Example 14; for osteoclast formation: 50, 1000 and 5000 nM with M-CSFWT and RANKL
Experimental: Primary cells differentiation assay—Murine primary cells were obtained as described in the murine primary cells section. Cells were washed with PBS and detached using a cell scraper, and 20,000 cells were plated in each well of a 96-well plate. Osteoclast differentiation was induced by culturing the cells in α-MEM containing 10% of fetal bovine serum (FBS), penicillin and streptomycin, […] M-CSF and 20 ng/ul RANKL (R&D Systems, USA). To determine the influence of the M-CSFRGD variants and the M-CSFM on the osteoclasts, the proteins were added to the differentiation medium (with M-CSF and RANKL) in three different concentrations (50 nM, 1 μM and 5 μM). After 72-96 h, once the cells had differentiated fully, they were fixated with 4% paraformaldehyde and stained using the tartrate-resistant acid phosphatase (TRAP) staining kit (Sigma-Aldrich, USA) according to manufacturer's protocol. As a positive control, PBS was used instead of the inhibitors, and negative controls comprised cells incubated in differentiation medium without RANKL and inhibitors. […] Cells in each image were counted in a double-blind manner and the number of nuclei in the osteoclasts and the total osteoclast surface area were determined using ImageJ software. Three repeats were performed for every condition, and each repeat was normalized to the positive control values.
Differentiation assay—BMMs and CD14+ cells were obtained and grown as described above. The plates containing the monocytes were washed with PBS; the cells were detached using a cell scraper for BMMs or Accutase (Biological industries, Israel) for CD14^+; and 2×10^4 BMMs or 1×10^4 CD14^+ cells were transferred to each well in a 96-well plate. Osteoclast differentiation was induced as described in the ‘phosphorylation assay’ section. To determine the influence of M-CSFC31S and the M-CSFC31S,M27R on osteoclast differentiation, the proteins were added to the differentiation medium (with M-CSF and RANKL) in different concentrations (50 nM, 1 μM and 5 μM for BMMs and 50 nM, 250 nM and 1 μM for CD14^+). To determine the influence of human M-CSFWT on the differentiation, it was added to the cells in different concentrations (50 nM 1 μM and 5 μM) without adding murine M-CSFWT. Once the cells were fully differentiated, they were fixed with 4% paraformaldehyde and stained using the tartrate-resistant acid phosphatase (TRAP) staining kit (Sigma-Aldrich, USA) according to the manufacturer's protocol. As the positive control, cells were incubated with M-CSF and RANKL without inhibitors, and the negative control was comprised of cells that were incubated in differentiation medium without RANKL. […] Cells in each image were counted in a double-blind manner, and the number of nuclei in the osteoclasts was determined using ImageJ software. For the positive control of BMMs, an average of 28.33 osteoclasts and 135 nuclei per well were counted. For CD14^+ positive control, the average numbers of osteoclasts and nuclei were 14.5 and 75, respectively, per well. The results for each parameter were normalized to the positive control values.
Murine bone marrow monocytes were purified from the bone marrow of eight- to twelve-week-old mice and were seeded for osteoclast differentiation in the presence of recombinant M-CSF and RANKL for 72-96 h. […] At the end of the differentiation period, osteoclasts were fixed and stained for Tartrate resistant acid phosphatase activity (TRAP). Osteoclast differentiation and spreading were evaluated in terms of three parameters: number of osteoclasts, number of nuclei in osteoclasts and osteoclast surface area.
The positive control contains a differentiation medium with both M-CSF WT and RANKL. The negative control contains only […], which keeps the cells alive though not differentiated. Varying concentrations of M-CSFM and M-CSFM,M27R were added to the cells, that were grown for five days. Then the cells were fixated and stained using TRAP staining for differentiated osteoclasts. […]

[2] = Small angle X-ray scattering (SAXS) analysis; format: physicochemical; details: 3, 5 and 7 mg/ml
Experimental: The scattering intensity was recorded in the interval 0.012<q<0.7 Å−1. The measurements were performed under vacuum at 25° C. All three M-CSF variants were measured at concentrations of 3, 5 and 7 mg/ml. The scattering of the buffer was also measured and subtracted from the scattering of the samples. The magnitude of the scattering vector is described by the following equation: […]
Values for the radius of gyration (Rg) were derived from the small angle part of the SAXS profile (Guinier region, qRg<1.0), in PRIMUS [43]. In this region, Guinier approximation is applicable:
Rg values were also derived using in-house scripts designed to perform an automatic search for the best fitting parameters using GNOM (Svergun, D. I. (1992). J. Appl. Crystallogr. 25, 495-503). CRYSOL ([…] and Koch, M. H. J. (1995) J. Appl. Crystallogr. 28, 768-773) was used to compute the theoretical SAXS spectra based on the M-CSFWT crystal structure (PDB ID code: 3UF2). These spectra served as a reference for reconstruction of the experimental SAXS data. GASBOR (Svergun, D. I., Petoukhov, M. V. and Koch, M. H. J. (2001) Biophys. J. 80, 2946-2953) was used to reconstruct the molecular envelope based on the best GNOM fit obtained from the in-house script. Ten models were calculated for each sample and averaged using DAMAVER (Volkov, V. V. and Svergun, D. I. (2003) J. Appl. Crystallogr. 36, 860-864).
Next, the size of the M-CSF variants was evaluated in solution. M-CSFWT, M-CSFC31S and M-CSFC31S,M27R at concentrations of 0.5 mg/ml were subjected to dynamic light scattering (DLS) analysis at an angle of 90°. The peaks for the most abundant species in each sample were compared (FIG. 16B), and an estimated hydrodynamic radius was calculated from each peak. […] To confirm that the oligomeric state of M-CSFC31S,M27R is not concentration dependent, all M-CSF variants were subjected to SAXS measurements at concentrations of 3, 5 and 7 mg/ml. Of note is that the Rg values remained within a similar range for M-CSFWT and M-CSFC31S. […]

B1: M-CSFM: 158 amino acid M-CSF with cysteine at position 31 replaced by serine (SEQ ID NO: 2) (protein)
chain: EEVSEYCSHMIGSGHLQSLQRLIDSQMETSSQITFEFVDQEQLKDPVCYLKKAFLLVQDIMEDTMRFRDNTPNAIAIVQLQELSLRLKSCFTKDYEEHDKACVRTFYETPLQLLEKVKNVFNETKNLLDKDWNIFSKNCNNSFAECSSQGHERQSEGS
number of osteoclasts and nuclei at 5000 nM ([1]; BMMs, 5000 nM): reduction in both osteoclasts and nuclei number | effect on osteoclast differentiation ([1]; Example 8, 50 nM, 1 μM and 5 μM with M-CSF and RANKL, 72-96 h): markedly enhanced osteoclast differentiation | effect on osteoclast differentiation/formation [1]: acts as an inducer for osteoclast differentiation | number of osteoclasts and number of nuclei ([1]; BMMs): the opposite result | osteoclast formation ([1]; BMMs): highly accelerated in the two lower concentrations | oligomeric state in solution [2]: exist as dimers in solution

B2: M-CSFWT: wild-type human M-CSF, disulfide-bond-linked homodimer which binds and activates c-FMS (protein)
chain: B1 chain with S31C
numbers of osteoclasts and their nuclei ([1]; BMMs, 50, 1000 and 5000 nM without murine M-CSFWT): inhibits both the numbers of osteoclasts and their nuclei, in a dose dependent manner | oligomeric state in solution [2]: exist as dimers in solution

B3: M-CSFC31S,M27R: M-CSF double mutant containing both C31S and M27R; monomeric, monospecific c-FMS antagonist (protein)
chain: B1 chain with M27R
effect on osteoclast differentiation/formation [1]: inhibits osteoclast formation in a dose dependent manner | number of osteoclasts and number of nuclei ([1]; BMMs): a decrease in both parameters, in a dose-dependent manner | osteoclast formation ([1]; BMMs): significantly inhibited, in a dose-dependent manner | oligomeric state in solution [2]: is a monomer
